Data reported in publication PMC3390244.

Target: human transferrin receptor (hTfR, CD71) (human, UniProt P02786 89-760)
Test: filter binding

human transferrin receptor (hTfR, CD71), sequence (P02786 89-760): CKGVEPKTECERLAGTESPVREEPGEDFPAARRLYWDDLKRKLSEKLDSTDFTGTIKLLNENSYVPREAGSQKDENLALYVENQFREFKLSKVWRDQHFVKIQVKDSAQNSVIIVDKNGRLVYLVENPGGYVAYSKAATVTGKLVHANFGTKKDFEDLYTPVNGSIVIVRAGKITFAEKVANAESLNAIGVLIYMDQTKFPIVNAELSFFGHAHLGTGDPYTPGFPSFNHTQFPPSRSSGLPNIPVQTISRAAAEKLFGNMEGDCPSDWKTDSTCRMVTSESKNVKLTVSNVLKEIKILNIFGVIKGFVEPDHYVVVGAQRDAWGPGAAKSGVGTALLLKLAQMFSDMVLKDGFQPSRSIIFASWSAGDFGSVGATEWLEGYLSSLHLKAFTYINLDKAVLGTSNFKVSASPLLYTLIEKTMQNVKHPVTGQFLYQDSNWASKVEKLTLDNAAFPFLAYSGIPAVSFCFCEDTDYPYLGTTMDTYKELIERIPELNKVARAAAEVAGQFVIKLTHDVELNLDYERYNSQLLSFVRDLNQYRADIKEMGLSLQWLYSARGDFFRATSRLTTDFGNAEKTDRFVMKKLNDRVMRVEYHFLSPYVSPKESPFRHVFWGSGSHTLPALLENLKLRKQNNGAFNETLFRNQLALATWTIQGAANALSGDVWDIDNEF

B1: c2.min (structured_RNA)
RNA: GGGGGAUCAAUCCAAGGGACCCGGAAACGCUCCCUUACACCCC
modifications: 2'-fluoro C and U; 3' inverted dT; 5' thiol
B1 showed a Kd of 102 nM.
